From US20160376366A1 (IMMUNOMEDICS, published 2016)

B1: humanized anti-CD22 LL2 antibody (hLL2, epratuzumab), IgG (antibody, V domains shown)
VH: QVQLQQSGAEVKKPGSSVKVSCKASGYTFTSYWLHWVRQAPGQGLEWIGYIYPRNDYTEYNQNFKDKATITADESTNTAYMELSSLRSEDTAFYFCARRDITTFYWGQGTTVTVSS
VL: DIQLTQSPSSLSASVGDRVTMSCKSSQSVLYSANHKNYLAWYQQKPGKAPKLLIYWASTRESGVPSRFSGSGSGTDFTFTISSLQPEDIATYYCHQYLSSWTFGGGTKVQIKR
notes: Tested as IgG with human constant regions; also called hLL2 IgG
B2: humanized RFB4 (hRFB4) anti-CD22 antibody, IgG (antibody, V domains shown)
VH: QVQLVQSGAEVKKPGSSVKVSCKASGFTFSIYDMSWVRQAPGQGLEWVAYISSGGGTTYYPDTVKGRFTITADESTNTAYMELSSLRSEDTAFYFCARHSGYGSSYGVLFAYWGQGTLVTVSS
VL: DIQLTQSPSSLSASVGDRVTISCRASQDISNYLNWYQQKPGKAPKLLIYYTSILHSGVPSRFSGSGSGTDYTFTISSLQPEDIATYYCQQGNTLPWTFGGGTKVQIKR
notes: RFB4 CDRs were inserted into the FR and constant regions of hLL2; also called hRFB4 IgG

Experiments:
[1] = biological target: T1, CD22 on CD22+ Daudi cells and on B cells within PBMCs (human, UniProt P20273 20-847); experiment: flow cytometry (MFI) on CD22+ Daudi cells
T1 construct: whole, on cells; The target was presented on human cells; also called human CD22
Method: (§1) FIG. 3. […] Binding activity at indicated concentrations is given as the MFI. Measurements were performed in triplicate; standard deviations are shown as bars.
(§2) Cells were pelleted at 200 g at 4° C. for 5 min and washed twice with 500 μl of FACS buffer. For detection of bound antibodies, cells were incubated with saturating amounts of FITC conjugated F(ab) Fragment goat anti-Human IgG, Fc specific (13 μg/ml; Jackson Immuno Research, West Grove, Pa.) for 45 min at 4° C. and washed again with 500 μl of FACS buffer. Stained cells were analyzed on a FACSCAN™ Flow Cytometer (BD Bioscience, San Jose, Calif.), and median fluorescence intensity (MFI) was calculated using […]™ software (BD Bioscience).

[2] = biological target: T1, CD22 on CD22+ Daudi cells and on B …; experiment: flow cytometry on CD22+ Daudi cells, MFI, FITC anti-human Fc detection
Method: as §1, §2

[3] = biological target: T1, CD22 on CD22+ Daudi cells and on B …; experiment: ELISA on CD22+ Daudi cells
[4] = biological target: T1, CD22 on CD22+ Daudi cells and on B …; experiment: ELISA on CD22+ Daudi cells (FIG. 2); reference hLL2
[5] = biological target: T1, CD22 on CD22+ Daudi cells and on B …; experiment: flow cytometry on CD22+ Daudi cells; reference hLL2 IgG
Method: as §1, §2

Row | Binder | EC50 [1] | EC50 [2] | Kd [3] | fold higher binding affinity than hLL2 [4] | fold higher affinity (EC50) than hLL2 [5]
1 | B1 | 1.03 µg/mL | 6.9 nM | 7.6 nM | – | –
2 | B2 | 0.055 µg/mL | 0.4 nM | – | 10 fold | 19 fold
